Patent publication US20260000597A1 (priority 2018, published 2026)

Molecular target: AchR (Homo sapiens, UniProt P02708)
Assay: ELISA of screened peptide phages on AchR versus streptavidin (OD450)
Format: binding
Settings: absorbance at 450 nm
Procedure, shortened: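 Phage supernatants from 4th–5th round plaques, in 2% BSA, applied 1 h at 30 °C to wells coated with 5 μg/ml AchR or streptavidin. Bound phage detected with HRP anti-M13 and TMB at OD450; value given as AchR/streptavidin signal ratio.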

[1] = ELISA of selected 14-mer (L3) peptide phages on AchR, Spep-2 positive control
[2] = phage ELISA, 5 μg/ml AchR, 4th and 5th round biopanning phages

Chain of AchR (P02708 21-457): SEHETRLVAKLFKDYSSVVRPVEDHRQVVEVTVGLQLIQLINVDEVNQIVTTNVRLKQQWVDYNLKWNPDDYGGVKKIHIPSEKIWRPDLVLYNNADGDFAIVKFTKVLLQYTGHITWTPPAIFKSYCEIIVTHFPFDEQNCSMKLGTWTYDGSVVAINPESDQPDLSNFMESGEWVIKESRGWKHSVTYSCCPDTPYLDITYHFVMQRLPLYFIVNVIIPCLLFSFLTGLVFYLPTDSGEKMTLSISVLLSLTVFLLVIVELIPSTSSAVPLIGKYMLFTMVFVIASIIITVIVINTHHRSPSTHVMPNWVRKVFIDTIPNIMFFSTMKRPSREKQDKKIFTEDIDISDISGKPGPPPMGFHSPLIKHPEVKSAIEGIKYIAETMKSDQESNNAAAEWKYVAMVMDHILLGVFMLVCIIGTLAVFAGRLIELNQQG

Substance | OD [1] | OD [2]
L3-161 (MAAKWKKDGMKSHY; AchR binding peptide) [Peptide L3-161] | 0.733 | 
L3-162 (ANWRTRRDLAKEHV; AchR binding peptide) [Peptide L3-162] | 0.781 | 
L3-163 (PFTKMRKQFQRMSA; AchR binding peptide) [Peptide L3-163] | 0.78 | 
L3-164 (QINRVKKSDAKFCT; AchR binding peptide) [Peptide L3-164] | 0.746 | 
L3-165 (YLVKLRRFWAKIDM; AchR binding peptide) [Peptide L3-165] | 0.771 | 
L3-166 (EYVKAKRTPWKYVV; AchR binding peptide) [Peptide L3-166] | 0.629 | 
L3-167 (AMCREKRFPYRAIY; AchR binding peptide) [Peptide L3-167] | 0.634 | 
L3-168 (MGLRARKYEDKTLH; AchR binding peptide) [Peptide L3-168] | 0.775 | 
L3-169 (FHMKSKKDGDKFVM; AchR binding peptide) [Peptide L3-169] | 0.783 | 
L3-170 (CIFKFKKNMFKGYS; AchR binding peptide) [Peptide L3-170] | 0.768 | 
L3-171 (LDTKNRRGASKWDY; AchR binding peptide) [Peptide L3-171] | 0.629 | 
L3-172 (VTGKGRRVTFRCMN; AchR binding peptide) [Peptide L3-172] | 0.634 | 
L3-173 (QLGKQKREATREYV; AchR binding peptide) [Peptide L3-173] | 0.775 | 
L3-174 (SSGKWKRPHAKYIV; AchR binding peptide) [Peptide L3-174] | 0.783 | 
L3-175 (TCHKTKRSIMRATS; AchR binding peptide) [Peptide L3-175] | 0.768 | 
L3-176 (MIGKCRKCGTKCYA; AchR binding peptide) [Peptide L3-176] | 0.739 | 
L3-177 (FQPKSRRAETKHSY; AchR binding peptide) [Peptide L3-177] | 0.735 | 
L3-178 (PDLKFRKHQDRTAI; AchR binding peptide) [Peptide L3-178] | 0.755 | 
L3-179 (YNARVKREGIKNIT; AchR binding peptide) [Peptide L3-179] | 0.743 | 
L3-180 (QGIRPRKHLQRMPN; AchR binding peptide) [Peptide L3-180] | 0.7 | 
L3-181 (GPCRPRRHSIRLLW; AchR binding peptide) [Peptide L3-181] | 0.624 | 
L3-182 (FYLRERRHQLKTEF; AchR binding peptide) [Peptide L3-182] | 0.818 | 
L3-183 (NMARSRKNECKYIA; AchR binding peptide) [Peptide L3-183] | 0.768 | 
L3-184 (DMDKVKKWVWRSFP; AchR binding peptide) [Peptide L3-184] | 0.766 | 

Substance | OD [1] | OD [2]
L3-185 (VLPKERRWLTRFLI; AchR binding peptide) [Peptide L3-185] | 0.794 | 
L3-186 (YEHRHKRFFHKDMP; AchR binding peptide) [Peptide L3-186] | 0.799 | 
L3-187 (HGHKPRRWIYRMPM; AchR binding peptide) [Peptide L3-187] | 0.731 | 
L3-188 (DGIRDKKCCWRDLI; AchR binding peptide) [Peptide L3-188] | 0.738 | 
L3-189 (ELVKHRRLDFRDPM; AchR binding peptide) [Peptide L3-189] | 0.786 | 
L3-190 (VHHKLRRVHLRLDV; AchR binding peptide) [Peptide L3-190] | 0.792 | 
L3-191 (GINRGRKVSPKDEQ; AchR binding peptide) [Peptide L3-191] | 0.739 | 
L3-192 (NGYRARKENLKFPE; AchR binding peptide) [Peptide L3-192] | 0.735 | 
L3-193 (AAYRARKIVEKSGW; AchR binding peptide) [Peptide L3-193] | 0.755 | 
L3-194 (WAPRDRRNMGRDPA; AchR binding peptide) [Peptide L3-194] | 0.743 | 
L3-195 (IEDKSKRFNCKECG; AchR binding peptide) [Peptide L3-195] | 0.7 | 
L3-196 (IEMRYRRDCSRFVN; AchR binding peptide) [Peptide L3-196] | 0.746 | 
L3-197 (QQIKYKRPTYRMVC; AchR binding peptide) [Peptide L3-197] | 0.771 | 
L3-198 (LPWRERRNGGRSSE; AchR binding peptide) [Peptide L3-198] | 0.78 | 
L3-199 (PQTRYRKYFYRPQM; AchR binding peptide) [Peptide L3-199] | 0.781 | 
L3-200 (HMCRWRRQINKGVS; AchR binding peptide) [Peptide L3-200] | 0.733 | 
RAKKCYHK [Peptide L1-50] |  | 0.583
RAKKIMFR [Peptide L1-177] |  | 0.484
RAKRMCCK [Peptide L1-8] |  | 0.653
RARKDAFK [Peptide L1-11] |  | 0.703
RARKESHK [Peptide L1-166] |  | 0.649
RARKLHNR [Peptide L1-103] |  | 0.55
RCKKNPEK [Peptide L1-66] |  | 0.605
RCKRCDNK [Peptide L1-120] |  | 0.388

Substance | OD [1] | OD [2]
RCKRFVGK [Peptide L1-173] |  | 0.63
RCRKDTAR [Peptide L1-142] |  | 0.469
RDRKFVQK [Peptide L1-154] |  | 0.633
RDRKIHDK [Peptide L1-23] |  | 0.712
RDRKNPVR [Peptide L1-124] |  | 0.428
REKKQEVK [Peptide L1-150] |  | 0.457
REKKYAYK [Peptide L1-181] |  | 0.589
REKRYMAR [Peptide L1-91] |  | 0.826
RFKRLCMK [Peptide L1-15] |  | 0.67
RFKRMVWR [Peptide L1-99] |  | 0.543
RFRKMIPK [Peptide L1-115] |  | 0.451
RFRKPTDR [Peptide L1-127] |  | 0.412
RFRRGVRR [Peptide L1-13] |  | 0.73
RFRRNFHK [Peptide L1-196] |  | 0.583
RGKKAVRK [Peptide L1-20] |  | 0.619
RGKKPWWR [Peptide L1-104] |  | 0.46
RGKKQLSK [Peptide L1-121] |  | 0.354
RGKRGCER [Peptide L1-54] |  | 0.569
RGKRHWHR [Peptide L1-179] |  | 0.633
RGKRQLGR [Peptide L1-3] |  | 0.649
RGRKKCGK [Peptide L1-42] |  | 0.695
RGRKPIWK [Peptide L1-108] |  | 0.535
RGRRGTMR [Peptide L1-93] |  | 0.616
RGRRWFVK [Peptide L1-28] |  | 0.656

Substance | OD [1] | OD [2]
RHKKFIEK [Peptide L1-59] |  | 0.479
RHKKSPWK [Peptide L1-5] |  | 0.657
RHKRMLWR [Peptide L1-131] |  | 0.505
RHKRQQDK [Peptide L1-186] |  | 0.474
RHKRWEVR [Peptide L1-195] |  | 0.642
RHKRWSGR [Peptide L1-153] |  | 0.625
RHRKYVDK [Peptide L1-152] |  | 0.484
RHRRANFR [Peptide L1-147] |  | 0.415
RIKRDYCK [Peptide L1-164] |  | 0.616
RIKRNNCK [Peptide L1-130] |  | 0.368
RIRKITWR [Peptide L1-194] |  | 0.636
RIRRAHDR [Peptide L1-165] |  | 0.644
RIRRGSVR [Peptide L1-57] |  | 0.408
RIRRHMYR [Peptide L1-83] |  | 0.621
RIRRVSQR [Peptide L1-60] |  | 0.484
RIRRWWVR [Peptide L1-82] |  | 0.596
RLKKHCGK [Peptide L1-187] |  | 0.668
RLKRAPGR [Peptide L1-33] |  | 0.529
RLKRGQFK [Peptide L1-85] |  | 0.57
RLRKSLGK [Peptide L1-95] |  | 0.535
RLRRRYRR [Peptide L1-45] |  | 0.597
RLRRWCVK [Peptide L1-30] |  | 0.605
RMKKFHTR [Peptide L1-128] |  | 0.301
RNKRDENK [Peptide L1-29] |  | 0.646

Substance | OD [1] | OD [2]
RNKRMDGK [Peptide L1-157] |  | 0.585
RNRKIPLK [Peptide L1-44] |  | 0.59
RPKKHQER [Peptide L1-158] |  | 0.605
RPKKWMQK [Peptide L1-61] |  | 0.625
RPKRNWAK [Peptide L1-96] |  | 0.494
RPKRSPSK [Peptide L1-117] |  | 0.508
RPRRGHQK [Peptide L1-24] |  | 0.742
RPRRSLDR [Peptide L1-17] |  | 0.653
RPRRTHIK [Peptide L1-6] |  | 0.652
RQKKDFLK [Peptide L1-107] |  | 0.534
RQKKDNQK [Peptide L1-26] |  | 0.647
RQKKPWVK [Peptide L1-31] |  | 0.604
RQRKSMQR [Peptide L1-27] |  | 0.662
RQRRMTPR [Peptide L1-156] |  | 0.589
RQRRNDMK [Peptide L1-9] |  | 0.639
RRRRRRRRRRR [Peptide L2-201, reference compound] |  | 0.307
RSKKINNK [Peptide L1-71] |  | 0.618
RSKKSLYR [Peptide L1-53] |  | 0.78
RSKRMNGK [Peptide L1-58] |  | 0.472
RSRRCPVK [Peptide L1-119] |  | 0.463
RSRRGIGK [Peptide L1-192] |  | 0.581
RTKKAYVK [Peptide L1-200] |  | 0.621
